# Non-standard residues stand in square brackets, D forms with d. Residues, ends and D or L forms follow the SMILES beside them. No end group written: not given here. *: point of attachment. βGlc = OC[C@H]1O[C@@H](*)[C@H](O)[C@@H](O)[C@@H]1O; Dmt = Cc1cc(O)cc(C)c1C[C@H](N)C(=O)O
# Experiments:
# human MOPr (hMOPr) = target: T1, human MOPr (hMOPr) (Homo sapiens, UniProt P35372); assay: Inhibition of forskolin induced cAMP formation in HEK cells expressing hMOPr; assay type: cell-based; conditions: for activity in cAMP screen: 10 μM; for TetraQ, initial screen % inhibition of forskolin-stimulate cAMP formation in hMOPr HEK cells: 10 um
# T1 construct: expressed in transfected cells; host or cells: HEK cells
# Protocol: Procedure for measuring the level of intracellular cAMP produced upon modulation of adenylate cyclase activity by G-protein-coupled receptors (GPCRs). To test the functional interaction between opioids, and opioid-like compounds, and specific opioid GPCRs by measuring changes in intracellular cAMP levels relative to basal levels. The assay can measure agonist and antagonist activity on GPCRs by stimulating cells to either increase or decrease intracellular cAMP levels.
# The assay is performed in a 384-well plate and each data point is performed in triplicate. The test compounds should be analyzed on the same plate as controls and cAMP standards. The number of compounds to be screened for activity will determine the volume of reagents and cells required for each experiment. The test compounds, controls and cAMP standards can be added to the plate in advance or while the cells are incubating with stimulation buffer. The plate should be sealed with TopSeal adhesive sealing film to avoid evaporation.
# Assay background: Detection of cAMP is based on the competition between intracellular cAMP and biotinylated cAMP linked streptavidin-coated donor beads for anti-cAMP conjugated acceptor beads. When the donor and acceptor beads are in close proximity a signal emitted at 520-620 nm is detected using the Envision multilabel plate reader.
# Preparation of test peptides: Test peptides are typically tested at a final concentration of 10 μM. As most test peptides are dissolved in 100% DMSO it is recommended that the DMSO concentration is limited to 2% v/v during cell stimulation to ensure maximum cell viability and responsiveness. Prepare 1 mM and 100 μM stock solutions of test peptides in an appropriate diluent and store at 4° C. For a library of peptides this can be performed in 96 well plates sealed with silicon sealing mats. Test peptides are diluted fresh from stock solutions to a working concentration in stimulation buffer with forskolin. It should be noted that as peptides are diluted 1:1 with cells in the assay the working concentration should be twice the final required concentration. It may be necessary to perform assays on compounds freshly diluted from DMSO stocks compounds to avoid experimental variability.
# Preparation of cells: For best results cells should be low passage at 70-90% confluence. To prepare cells for the assay remove growth medium, add Versene and then incubate at 37° C. for approximately 5 minutes to allow cells to detach from the tissue culture plastic. Collect cells and centrifuge for 2 minutes at 275×g. Decant the supernatant and resuspend the cell pellet in 1×PBS. Determine the cell concentration using a haemocytometer. Re-centrifuge cells for 2 minutes at 275×g and decant supernatant. Resuspend cells in stimulation buffer to a final concentration of 1-4×10^4 cells per ml. Note that the cells number will influence the cAMP levels prevailing before (basal) and after adenylate cyclase activation. A cell titration should be performed to optimize the difference between basal and stimulation levels of cAMP. Cells are incubated in stimulation buffer for 20 to 30 minutes at 37° C. prior to adding 5 μl to wells containing test and control compounds. Note that cells are not added to the cAMP standards.
# 1. Add standards (10 μl/well), control compounds (5 μl/well) and test peptides (5 μl/well) into 384-well plates and seal with Top Seal adhesive sealing film. Leave at room temperature until the cell incubation is complete. 2. Add 5 μl cells incubated in stimulation buffer to the wells containing test peptides and control compounds, but not to the standards. Incubate cells and compounds for 30 min at 37° C. 3. Add 10 μl lysis buffer per well. 4. Under subdued lighting add 5 μl acceptor bead solution to each well. Wrap plate in foil and incubate at room temperature with gentle mixing on an orbital shaker for 60 min. 5. […]
# C57BL/6 mice = assay: Nociception (analgesia) testing on 54 C hotplate; assay type: in vivo, mouse; conditions: 54° C. hotplate, s.c.
# Protocol: Experiments were performed under the guidelines of the Australian code of practice for the care and use of animals for scientific purposes (National Health and Medical Research Council, Australia, 7th Edition). Great care was taken to minimise animal suffering during these experiments and to reduce the number of animals used. […] Food and water was available ad libitum. Mice were given at least 7 days to habituate to housing facilities prior to handling, and handled by the experimenter for 4 days prior to testing. […] The experimenter was blind to all drugs tested. Animals were tested on a 54° C. hotplate, with a maximum cut-off time of 20 seconds to prevent tissue damage. Endpoints were hindpaw lick, hindpaw flutter or jump. […] The percentage of maximal possible effects (% MPE) were calculated as follows: % MPE=(test latency−baseline latency)/(cutoff latency−baseline latency)×100%. The cut-off latency was 20 seconds. Significant differences were assessed with a two-way ANOVA and Tukey's post hoc multiple comparisons test. […] Doses were transformed to the logarithm of μmol/kg. A two-way ANOVA was used to compare data at equimolar doses.
# [1] = target: T2, human µ-opioid receptor (hMOPr), human recombinant MOPr expressed in HEK-293 cells (human, UniProt P35372 1-400); assay: cell-based or functional assay
# [2] = target: T2, human µ-opioid receptor (hMOPr), human …; assay: competition with [3H]DAMGO (0.5 nM), membranes with human recombinant MOPr (HEK-293), filtration and scintillation counting
# Protocol: The specific ligand binding to the receptors is defined as the difference between the total binding and the nonspecific binding determined in the presence of an excess of an unlabelled opioid ligand (naloxone, 10 μM). The results are expressed as a percent of control specific binding ((measured specific binding/control specific binding)×100) obtained in the presence of unlabelled peptides of interest. The IC₅₀ values (concentration causing a half-maximal inhibition of control specific binding) and Hill coefficients (nH) were determined by non-linear regression analysis of the competition curves generated with mean replicate values using Hill equation curve fitting (Y=D+[(A−D)/(1+(C/C₅₀nH)], where Y=specific binding, D=minimum specific binding, A=maximum specific binding, C=compound concentration, C₅₀=IC₅₀, and nH=slope factor).
# T1 sequence (P35372 whole entry): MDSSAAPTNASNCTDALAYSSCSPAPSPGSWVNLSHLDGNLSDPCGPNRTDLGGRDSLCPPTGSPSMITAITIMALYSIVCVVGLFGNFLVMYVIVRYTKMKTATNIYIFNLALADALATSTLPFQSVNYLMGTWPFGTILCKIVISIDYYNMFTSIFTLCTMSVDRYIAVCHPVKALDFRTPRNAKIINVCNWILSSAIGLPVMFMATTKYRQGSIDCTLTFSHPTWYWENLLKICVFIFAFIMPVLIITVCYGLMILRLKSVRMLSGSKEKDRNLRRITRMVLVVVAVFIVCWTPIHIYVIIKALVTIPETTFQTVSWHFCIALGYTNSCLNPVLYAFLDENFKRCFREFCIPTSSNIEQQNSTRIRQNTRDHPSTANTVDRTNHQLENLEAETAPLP
# T2 sequence (P35372 whole entry): as above
Molecule,"TetraQ, initial screen % inhibition of forskolin-stimulate cAMP formation in hMOPr HEK cells (human MOPr (hMOPr))",% inhibition of forskolin-stimulate cAMP formation in hMOPr HEK cells (10 um) [1] [%],further results
H-fVvF-OH [1b],0%,–,activity in cAMP screen (human MOPr (hMOPr)): inactive
H-FGGy-NH2 (H-FGG[dY]-NH2; SMILES NC(=O)[C@@H](Cc1ccc(O)cc1)NC(=O)CNC(=O)CNC(=O)[C@@H](N)Cc1ccccc1) [2f],0%,–,–
H-fvVF-OH [1d],0%,–,–
"CC(C)[C@H](NC(=O)[C@H](NC(=O)[C@@H](N)Cc1ccc(O)cc1)C(C)C)C(=O)N[C@H](Cc1ccccc1)C(=O)O [peptide 3a, L-Tyr-D-Val-L-Val-D-Phe]",–,–,activity in cAMP screen (human MOPr (hMOPr)): showed activity
H-FvVy-NH2 [2b],0%,–,activity in cAMP screen (human MOPr (hMOPr)): Neither Bilaid B (2a) nor its C-terminal carboxamide analogue (2b) showed activity
"CC(C)[C@@H](NC(=O)[C@@H](N)Cc1ccccc1)C(=O)NCC(=O)N[C@H](Cc1ccc(O)cc1)C(N)=O [peptide 2d, L-Phe-D-Val-Gly-D-Tyr-NH2] (H-F[dV]G[dY]-NH2)",31%,–,–
H-FvVy-OH (H-F[dV]V[dY]-OH; SMILES CC(C)[C@H](NC(=O)[C@H](NC(=O)[C@@H](N)Cc1ccccc1)C(C)C)C(=O)N[C@H](Cc1ccc(O)cc1)C(=O)O) [2a],0%,–,activity in cAMP screen (human MOPr (hMOPr)): Neither Bilaid B (2a) nor its C-terminal carboxamide analogue (2b) showed activity
H-FVVY-NH2 [2c],0%,–,–
H-FGVy-NH2 (H-FGV[dY]-NH2; SMILES CC(C)[C@H](NC(=O)CNC(=O)[C@@H](N)Cc1ccccc1)C(=O)N[C@H](Cc1ccc(O)cc1)C(N)=O) [2e],0%,–,–
"2,6-dimethyl-L-tyrosine-D-Val-L-Val-D-Phe-L-Ser(β-D-Glc)-NH2 ([Dmt][dV]V[dF]S(βGlc)-NH2; N-terminus assumed; SMILES Cc1cc(O)cc(C)c1C[C@H](N)C(=O)N[C@@H](C(=O)N[C@H](C(=O)N[C@H](Cc1ccccc1)C(=O)N[C@@H](CO[C@@H]1O[C@H](CO)[C@@H](O)[C@H](O)[C@H]1O)C(N)=O)C(C)C)C(C)C) [peptide 3h]",–,–,analgesic activity after systemic administration (C57BL/6 mice): systemically inactive
"C[C@@H](NC(=O)[C@@H](N)Cc1ccc(O)cc1)C(=O)NCC(=O)N(C)[C@@H](Cc1ccccc1)C(=O)NCCO [DAMGO, [D-Ala^2, N-MePhe^4, Gly^5-ol]-enkephalin, reference compound]",DAMGO = 94%),–,–
H-FVvf-OH [1c],0%,–,activity in cAMP screen (human MOPr (hMOPr)): inactive
H-FVvf-NH2 [1g],0%,–,–
H-fVvF-NH2 [1f],0%,–,–
"CC(C)[C@H](NC(=O)[C@H](NC(=O)[C@@H](N)Cc1ccccc1)C(C)C)C(=O)N[C@H](Cc1ccccc1)C(=O)O [peptide 1a, L-Phe-D-Val-L-Val-D-Phe] (H-F[dV]V[dF]-OH)",21%,–,activity in cAMP screen (human MOPr (hMOPr)): showed activity
H-FV[dV][dF]-OH [H-FVvf-OH],–,0,–
H-[dF]V[dV]F-OH [H-fVvF-OH],–,0,–
FVVF (D-Phe at 1; D-Val at 3; C-terminal amide) [H-fVvF-NH2],–,0,–
"H-F[dV]G[dY]-NH2 (SMILES CC(C)[C@@H](NC(=O)[C@@H](N)Cc1ccccc1)C(=O)NCC(=O)N[C@H](Cc1ccc(O)cc1)C(N)=O, also called 2d; peptide 2d) [H-FvGy-NH2 (L-Phe-D-Val-Gly-D-Tyr-NH2)]",–,31,Ki [2]: 1.6 µM
H-F[dV]V[dY]-NH2 (SMILES CC(C)[C@H](NC(=O)[C@H](NC(=O)[C@@H](N)Cc1ccccc1)C(C)C)C(=O)N[C@H](Cc1ccc(O)cc1)C(N)=O) [H-FvVy-NH2],–,0,–
"H-F[dV]V[dF]-OH (SMILES CC(C)[C@H](NC(=O)[C@H](NC(=O)[C@@H](N)Cc1ccccc1)C(C)C)C(=O)N[C@H](Cc1ccccc1)C(=O)O, Natural product of Penicillium sp; MST-MF667; made by Fmoc synthesis for the assays; also called 1a; peptide 1a) [bilaid A (H-FvVf-OH; L-Phe-D-Val-L-Val-D-Phe)]",–,21,Ki [2]: 3.1 µM
"YVVF (D-Val at 2; D-Phe at 4; free C-terminal acid, Natural product of Penicillium sp; MST-MF667; made by Fmoc synthesis; also called 3a; peptide 3a) [bilaid C (H-YvVf-OH; L-Tyr-D-Val-L-Val-D-Phe)]",–,77,Ki [2]: 0.21 µM
FVVF (D-Val at 3; D-Phe at 4; C-terminal amide) [H-FVvf-NH2],–,0,–
H-FGV[dY]-NH2 (SMILES CC(C)[C@H](NC(=O)CNC(=O)[C@@H](N)Cc1ccccc1)C(=O)N[C@H](Cc1ccc(O)cc1)C(N)=O) [H-FGVy-NH2],–,0,–
H-F[dV]V[dY]-OH (SMILES CC(C)[C@H](NC(=O)[C@H](NC(=O)[C@@H](N)Cc1ccccc1)C(C)C)C(=O)N[C@H](Cc1ccc(O)cc1)C(=O)O) [bilaid B (H-FvVy-OH)],–,0,–
H-[dF][dV]VF-OH [H-fvVF-OH],–,0,–
H-FVVY-NH2 [H-FVVY-NH2],–,0,–
H-FGG[dY]-NH2 (SMILES NC(=O)[C@@H](Cc1ccc(O)cc1)NC(=O)CNC(=O)CNC(=O)[C@@H](N)Cc1ccccc1) [H-FGGy-NH2],–,0,–

# — patent US20210355166A1, “[…] METHODS OF USE THEREOF” (priority 2018, published 2021)
